# “Also recorded” adds a separate entry of the source.
# B1: MxA: full-length human MxA GTPase, 78 kDa, expressed from a transfected plasmid in PC-3M or LOX cells (protein)
# chain: MVVSEVDIAKADPAAASHPLLLNGDATVAQKNPGSVAENNLCSQYEEKVRPCIDLIDSLRALGVEQDLALPAIAVIGDQSSGKSSVLEALSGVALPRGSGIVTRCPLVLKLKKLVNEDKWRGKVSYQDYEIEISDASEVEKEINKAQNAIAGEGMGISHELITLEISSRDVPDLTLIDLPGITRVAVGNQPADIGYKIKTLIKKYIQRQETISLVVVPSNVDIATTEALSMAQEVDPEGDRTIGILTKPDLVDKGTEDKVVDVVRNLVFHLKKGYMIVKCRGQQEIQDQLSLSEALQREKIFFENHPYFRDLLEEGKATVPCLAEKLTSELITHICKSLPLLENQIKETHQRITEELQKYGVDIPEDENEKMFFLIDKVNAFNQDITALMQGEETVGEEDIRLFTRLRHEFHKWSTIIENNFQEGHKILSRKIQKFENQYRGRELPGFVNYRTFETIVKQQIKALEEPAVDMLHTVTDMVRLAFTDVSIKNFEEFFNLHRTAKSKIEDIRAEQEREGEKLIRLHFQMEQIVYCQDQVYRGALQKVREKELEEEKKKKSWDFGAFQSSSATDSSMEEIFQHLMAYHQEASKRISSHIPLIIQFFMLQTYGQQLQKAMLQLLQDKDTYSWLLKERSDTSDKRKFLKERLARLTQARRRLAQFPG
# B2: T103 mutant MxA: FLAG-tagged MxA with threonine 103 mutated to alanine; the mutation inactivates GTPase activity (protein)
# chain: MVVSEVDIAKADPAAASHPLLLNGDATVAQKNPGSVAENNLCSQYEEKVRPCIDLIDSLRALGVEQDLALPAIAVIGDQSSGKSSVLEALSGVALPRGSGIVARCPLVLKLKKLVNEDKWRGKVSYQDYEIEISDASEVEKEINKAQNAIAGEGMGISHELITLEISSRDVPDLTLIDLPGITRVAVGNQPADIGYKIKTLIKKYIQRQETISLVVVPSNVDIATTEALSMAQEVDPEGDRTIGILTKPDLVDKGTEDKVVDVVRNLVFHLKKGYMIVKCRGQQEIQDQLSLSEALQREKIFFENHPYFRDLLEEGKATVPCLAEKLTSELITHICKSLPLLENQIKETHQRITEELQKYGVDIPEDENEKMFFLIDKVNAFNQDITALMQGEETVGEEDIRLFTRLRHEFHKWSTIIENNFQEGHKILSRKIQKFENQYRGRELPGFVNYRTFETIVKQQIKALEEPAVDMLHTVTDMVRLAFTDVSIKNFEEFFNLHRTAKSKIEDIRAEQEREGEKLIRLHFQMEQIVYCQDQVYRGALQKVREKELEEEKKKKSWDFGAFQSSSATDSSMEEIFQHLMAYHQEASKRISSHIPLIIQFFMLQTYGQQLQKAMLQLLQDKDTYSWLLKERSDTSDKRKFLKERLARLTQARRRLAQFPG
# modifications: left off: small tags and cut ends
# Legend:
# PC-3 cells = assay: MxA protein induction, immunohistochemistry and Western blot; type: cell-based, human; details: 1000 IU of IFN-α/mL, 24 hours
# Description: (§1) PC-3 and PC-3M test cells also were treated with recombinant IFN-α (Novartis Pharma—Basel, Switzerland) (1000 IU of IFN-α/mL), grown for 24 hours, fixed, permeabilized, and subjected to immunohistochemical analysis using anti-MxA antibody and DAPI nuclear counterstaining to locate individual cells. […] Western blotting with […] using 100 μg cell lysates confirmed IFN-α-induced increase in MxA expression in both cell lines.
# PC-3M cells [1] = assay: as above; type: cell-based, human; details: 1000 IU of IFN-α/mL, 24 hours
# Description: as §1
# PC-3M cells [2] = assay: In vitro motility, migration through 8-μm pore membrane; type: cell-based, human; details: 24 hours
# Description: The PC-3M cells of Example 1 were transfected with a pCIneo plasmid (Promega, Madison, Wis.) expressing full-length MxA or a plasmid constructed from pHβ Apr-1 comprising an MxA sequence operably linked to a CMV promoter, and two stable cell lines were selected. PC-3M cells stably transfected with a plasmid expressing β-galactosidase (β-gal) were used as a control. MXA expression was not detected in the PC-3M β-gal cells.
# The motility of PC-3M transfectants in vitro was tested by measuring the ability of the cells to migrate through pores in a membrane. Briefly, FALCON cell culture inserts with an 8-μm pore-size PET membrane (Fisher Scientific, Franklin Lake, N.J.) were placed into the wells of a 24-well plate, each well containing 0.5 ml of complete medium (RPMI 1640 with 10% FBS, 1% antimycotic-antibiotic solution, and 500 μg mL^−1 G418). Control and MxA-transfected cells were trypsinized, suspended at 1.5×10^5 cells/ml in complete medium, and 350μl of the cell suspension was added to each insert. Following incubation for 24 hours at 37° C., cells from the upper surface of the membrane were removed by scrubbing with a cotton swab. Cells that had migrated through the insert and adhered to the bottom of the membrane were Wright stained using the CAMCO Quik Stain kit (Fisher Scientific), visualized using a Zeiss Axiophot microscope or Leica DMIRB microscope, and counted.
# LOX cells = assay: In vitro invasion, BIOCOAT Matrigel invasion chamber; type: cell-based, human; details: stably transfected LOX cells vs β-gal control LOX cells
# PC-3M cells [3] = assay: Primary tumor growth assay; type: in vivo, beige/SCID mice; details: 2×10^6 PC3M-MxA cells subcutaneously; β-gal control 29.8±3.4 days
# Description: The effect of MxA expression on tumor growth in vivo was first tested using a primary tumor growth assay. 2×10^6 recombinant PC-3M cells expressing […] MxA (PC3M-MxA) or 2×10^6 recombinant PC-3M-β-gal cells (expressing β-gal) were injected subcutaneously into 30 beige/SCID mice (Charles River Laboratories, Wilmington, Mass.), and the time to formation of a 2-cm subcutaneous tumor (as measured using Vernier calipers) was determined by monitoring the mice at least three times weekly for evidence of tumor development, quantification of tumor size, and evidence of tumor/metastasis-associated morbidity. Subcutaneous tumor size was quantified using Vernier Calipers. Criteria for sacrifice included tumor growth to greater than 2.0 cm, ill thrift, anorexia, dehydration, decreased activity and grooming behavior, and dyspnea.
# PC-3M cells [4] = assay: Experimental hepatic metastasis assay; type: in vivo, beige/SCID mice; details: 2×10^6 PC3M-MxA cells into the spleen; β-gal control 23.3±3.3 days
# Description: The in vivo effects of MxA expression on tumor growth and metastatic potential was also tested using an experimental hepatic metastasis assay. Briefly, 2×10^6 cells from the PC3M-MxA cell line and the PC-3M-β-gal cell line were injected into the spleens of beige/SCID mice. Mice were monitored at least three times weekly for evidence of tumor development, quantification of tumor size, and evidence of tumor and/or metastasis-associated morbidity. Animal survival time was determined, and mean survival time was compared between the two treatment groups.
# [5] = system: insoluble cytoskeletal matrix; assay: Cytoskeletal extraction and anti-FLAG immunological analysis; type: cell-based; details: transfected LOX cells, anti-FLAG antibody
# Description: MxA-LOX cells and T103 MxA-LOX cells were subjected to immunological analysis using known techniques (see Choi et al., J. Biol. Chem., 272:28479-28484 (1997)) with an anti-FLAG antibody after cytoskeletal extraction, which removed all the soluble proteins, leaving only cytoskeleton-associated proteins. Cytoskeletal preparations were prepared by permeabilizing the cells with 1% Triton X-100 in PHEM buffer (60 mM piperazine-N-N′-bis(2-ethane-sulfonic acid) (PIPES; pH 6.9), 25 mM N-2-hydroxyethlypiperazine-N′-2-ethanesulfonic acid (HEPES), 2 mM MgCl2, and 10 mM ethylene glycol-bis(b-aminoethyl ether)-N,N,N′N′-tetraacetic acid (EGTA, pH 6.9)) for 2 minutes, fixing the cells with 3.7% formaldehyde for 10 minutes at room temperature (see Hartwig, J. Cell Biol. 118:1421-1442 (1992)). Fixed cells were incubated with appropriate primary and secondary antibodies and the nuclei counterstained with 4,6-daimidino-2-phenylinodole (DAPI). Cells were visualized with a Zeiss Axiophot microscope and images were captured using an Optronics CCD camera.
# To further investigate the relationship between MxA and microtubules, soluble proteins were extracted from the LOX cells, using standard techniques, and the insoluble cytoskeletal matrix was examined for associated proteins.
# tubulin = assay: Coimmunoprecipitation with anti-α-tubulin and anti-MxA antibodies; type: binding; details: transfected LOX cell lysates
# Description: (§2) Immunoprecipitation was performed by known techniques (Bang et al., Proc. Natl. Acad. Sci. USA 91:5330-5334 (1994)). Briefly, cell lysates were obtained and incubated with the indicated antibodies overnight at 4° C. The immunocomplex was immobilized on protein A/G-Sepharose (Santa Cruz Biotechnologies), resolved on SDS-polyacrylamide gels, transferred to nitrocellulose filters, and immunoblotted with the indicated antibodies.
# Using the LOX cells stably transfected with the […] MxA construct, as described in the preceding Examples, whole cell lysates were prepared and immunoprecipitated with anti-α-tubulin antibodies, anti-MxA antibodies, and protein A/protein G-coated Sepharose beads alone, and the resulting compositions were subjected to Western blotting with anti-FLAG antibody (Sigma).
# actin = assay: Coimmunoprecipitation with actin in PC-3 cells; type: binding, human; details: endogenous MxA in PC-3 cells
# Description: as §2
# PC-3M cells [6] = assay: Time-lapse video microscopy of cell motility; type: cell-based, human; details: PC-3M-MxA vs PC-3M-β-gal cells, 250 minute recording
# Description: Using time-lapse video microscopy, PC-3M cells stably transfected with an MxA construct (as described in Example 2) were observed and compared to control PC-3M-β-gal cells. Specifically, PC-3M-βgal and PC-3M-MxA cells were seeded in 25 cm^2 flasks and cultured for 24 hours. After 24 hours, the flasks were filled with pre-warmed complete medium and cell motility was observed using by phase-contrast microscopy using an Optronics cooled CCD camera mounted on a Leica DMIRB inverted microscope. During observation, the cells were maintained at 37° C. using an ASI 400 Air Stream Incubator (Nevtek—Burnsville, Va.). Time-lapse video microscopy (250 minute recording converted into 1 minute of playing time) was converted into QuickTime movies using Adobe Premier 5.1.
Molecule,level of MxA protein after exposure to IFN-α (PC-3 cells),level of MxA protein after exposure to IFN-α (PC-3M cells [1]),"motility, % of the β-gal control cells (PC-3M cells [2]; PC-3M stably expressing MxA, lowest level seen) [%]","motility, % lower than the β-gal control cells (PC-3M cells [2]; all MxA-expressing PC-3M cells, both cases tested)","in vitro invasive activity, % of control cells (LOX cells) [%]",time to develop a 2-cm tumor mass (PC-3M cells [3]) [days],survival (PC-3M cells [4]) [days],association with insoluble cytoskeletal matrix after cytoskeletal extraction [5],association with tubulin by coimmunoprecipitation (tubulin),co-immunoprecipitation with actin (actin),mobility of PC-3M cells by visual observation (PC-3M cells [6])
IFN-α,increased substantially,became detectable,,,,,,,,,
B1,,,24.3,at least 22.4%,15.1,46.8 ± 9.9,54.3 ± 11.2,remained bound to the matrix,associated with cell microtubules and particularly tubulin; also recorded: detected in the complex with tubulin,did not co-immunoprecipitate,significantly inhibited
B2,,,,,119,,,undetectable; also recorded: washed out of the insoluble preparation,did not associate,,

# — patent US20040209800A1, “Use of mx gtpases in the prognosis and treatment of cancer” (priority 2001, published 2004)
